In the DeepSol protein solubility set:

Assay: soluble on expression in E. coli; label from the status in PepcDB or PDB records

Sequence | soluble on expression in E. coli
MAYQSKNTDEHVTFADALLSKRYRKAQNDFLNQVERLIDWRPIRTLINKKYTKRQNAIGAPAYDVILLFKMLLLETWYNLSDCALEERINDSITFSRFLGLKMEEVSPDHSTISRFRSALTELGLMDKLLAQFNKQLSRHHISVREGVLVDASLVETPHKPNGTITIEVADDREDNRSEAEKEAEEDYQKQVVRRRKGTDEEARWVYKQKRYHYGYKKHCLTNVQGIVQKVITTAANRSDTKEFIPLLQGANIPQGTAVLADKGYACGENRSYLQTHHLQDGIMHKAQRNRALTEEEKQGNKAISPIRSTIERTFGSIRRWFHGGRCRYRGLAKTHTQNILESIAFNLYRTPGIIMSSSLG | not soluble
MAYRDQPLGELALSIPRASALFRQYDMDYCCGGKQTLARAAARHDVDIDIIEAQLAQLAEQPIEKDWRAVPLADIIDHIVVRYHDRHREQLPELILQATKVERVHADKPNVPRGLTKYLTALHEELSSHMMKEEQILFPMIKQGMGRQATGPISVMESEHDEAGELVDVIKHVTKNVTPPPEACTTWKAMYNGINEMIDDLMEHISLENNVLFPRALAGE | not soluble
MAYRERAAWAPEGYMLPLPGACLPSLPENLPGAPRPYRKGVSAGFVFRQGDACVPVVRGMGVVAAFGGEVVKVDPDFQELSEEAWQALLERVREGASPEEMDILRGLEVHVRHPDGRTTVYAHLQAPYPGLKVGSRVHRGDPIGYVGNTGLRGGASRLLFEVWEGEPDRSAFLFQGLEGEELLRRARAFFGLP | soluble
MAYRICLIEGDGIGHEVIPAARRVLEATGLPLEFVEAEAGWETFERRGTSVPEETVEKILSCHATLFGAATSPTRKVPGFFGAIRYLRRRLDLYANVRPAKSRPVPGSRPGVDLVIVRENTEGLYVEQERRYLDVAIADAVISKKASERIGRAALRIAEGRPRKTLHIAHKANVLPLTQGLFLDTVKEVAKDFPLVNVQDIIVDNCAMQLVMRPERFDVIVTTNLLGDILSDLAAGLVGGLGLAPSGNIGDTTAVFEPVHGSAPDIAGKGIANPTAAILSAAMMLDYLGEKEAAKRVEKAVDLVLERGPRTPDLGGDATTEAFTEAVVEALKSL | soluble
MAYRNIKIVKGNGGFGGPLIIAPTDEKHKFIYITGGGEKPEIVDKIVELTGMEAVNGFKTSIPDEEIALAIVDCGGTLRCGIYPKKGIPTINIVATGKSGPLAQYITEDIYVSAVGMEQITSIEESAGSIETKEAKAETAQSQTGTGTYDTSKKITEQRAQQSVIARIGMGAGKVVAVFNQAARDAIQ | not soluble
MCELDILHDSLYQFCPELHLKRLNSLTLACHALLDCKTLTLTELGRNLPTKARTKHNIKRIDRLLGNRHLHKERLAVYRWHASFICSGNTMPIVLVDWSDIREQKRLMVLRASVALHGRSVTLYEKAFPLSEQFQRKLMTNFLEHHHHHH | not soluble
MCESKIDRNRIWIVGTNATYPPFEYVDAQGEVVGFDIDLAKAISEKLGKQLEVREFAFDALILNLKKHRIDAILAGMSITPSRQKEIALLPYYGDEVQELMVVSKRSLETPVLPLTQHSSVAVQTGTFQEHYLLSQPGICVRSFDSTLEVIMEVRYGKSPVAVLEPSVGRVVLKDFPNLVATRLELPPECWVLGCGLGVAKDRPEEIQTIQQAITDLKSEGVIQSLTKKWQLSEVAYELEHHHHHH | soluble
MCFHNSMSAKAIKVAARYGRQSDVVEIYQSILDEQYHVNAFTFPRYPIITSSDEVQVFNWGLIPFWVRSEEDATEIRKMTLNARADTIFEKPSFREPIMKKRCIVPSTGYFEWRHEGANKIPYYIYVKDEPIFSMAGIYDRWLDKDTGEEHETFSIITTDTNSLTDYIDNTKHRMPAILTQEEEEKWLNPSLSKAEIASLLKPFDTEKMDAYVIRNDFLKKSPNDPTIVQRALEHHHHHH | soluble
MCFRIADGTFFGWEGCFFQAGSCPGTCTHVWNYAQTVANLFPRLERNMRETEFLRETDGQGKMNFRAKIQLEGKPWDMYPAVDGQLGSILRVYREWKISGDDDFLKKIWNQVVSALEFSASYWDSNQDCVLDGQQHNTYDIEFYGVNSLGNSIYYAALKAGAEMAEYLGEHERSQKWRSMEQAGCKRMDEMLFNGEYYRQVTDGDIDEYKYQYGEGCLSDQLLGQTLAHLYGLGHLFPEDHVKSAVFAIYKYNFKERMGSHKSLQRGYAYQDEPGLLLCSWPSGGRPKQPFVYSDEVWTGIEYQVAAGLIYEGFLQEGLEIVRAVRSRYDGYKRNPFNEVECGNHYARSMASWGVLNALSGLQVDLPHNSVTISPKVNQDCFSSFYSTGTEWGICRQFKDQSGALIQSFEALYHADLEHHHHHH | not soluble
MCFTKKSTKTPPEPISKDSADKKKKTTIKKGKKFPMMNMIVKNKKNEVQVEKKPEEVPEQNKSVKDQTKKEEVKVVEEDKVEKKVEQKKPIINRPNCVAINPRSATSGKKNKYKFKYGQIDQQELSINNDKTEYLENAQLTKLMSHADVRALMGGQFAQGENADTNNCQDTVEEVDSEMLEIAFSPLLAVIPREDERVYGAFVHPTEQKKNAEA | soluble
MCMGGINDNLVRFVYKYKIKMKRERSAMNIEYMNQKVEFSLVRKERKSIKISVNRDFTIEVIAPFNVAEEEIKNVVYKKMKWIIKQMKRMENIIDINEEIKYSDGDAFYIFGTPYRLIVKKGIKNKMRIFGENVYMYIKEKDNYEYKKNYAEKWYKKIAAIELEYLYNEKYKIFDEIYDEKPKLIRKMKSKWGSYSPADNKVVLNTQLVKIPKTCIEYVIIHELCHVKFRNHRKEFYNYVNNFMPDWKLKKESLDRYVNVLEHHHHHH | not soluble
MCMGTRSKRSERGRCRMHLERCVCPAIPRYDLTTRVVLVMHHREYPKPTATGPLALAALPNSELRIHGERDSLLDLGDLATPERRTLLLYPGDDVPVLTRELLERDRRPVTLVVPDGTWRQASRMGRRLPGLDHAEMVRLPEGLPTEWGIRRENHPQGLATFEAIARALGIIESPAVQTGLEELFRLMVRRTLSAGGRAILEHHHHHH | soluble
MCQATNGPSRVVTKKHRKFFERHLQLLPSSHQGHDVNRMAIIFYSISGLSIFDVNVSAKYGDHLGWMRKHYIKTVLDDTENTVISGFVGSLVMNIPHATTINLPNTLFALLSMIMLRDYEYFETILDKRSLARFVSKCQRPDRGSFVSCLDYKTNCGSSVDSDDLRFCYIAVAILYICGCRSKEDFDEYIDTEKLLGYIMSQQCYNGAFGAHNEPHSGYTSCALSTLALLSSLEKLSDKFKEDTITWLLHRQVSSHGCMKFESELNASYDQSDDGGFQGRENKFADTCYAFWCLNSLHLLTKDWKMLCQTELVTNYLLDRTQKTLTGGFSKNDEEDADLYHSCLGSAALALIEGKFNGELCIPQEIFNDFSKRCCF | soluble
MCSISRGKLSTVLKSTSSCIFENLAYEEHIFRTHNVAQNGEILLMWSNRPAVVIGRHQNPWIEVNIPYANKNNIQIVRRHSGGGTVYHDLGNLNISLLTTHAQHCRPKNLKFISDALNQQFSVKIVPNKRDDMELHPGERKCSGTAARIARGQAYHHLTLLVGADLQVLSKSLKSPWRDKIESNATRSVRAPAVGFLKQDDANANVEQSKLAIVEAYRKLFEESHIKTVNVAEEVKKNAEISKIFDELKAWKWIYGKSPKFQYSRENKSIIEMMRTAHKDREPWRDIRRMSKWQGVRVCDEPSPWYMSIPTPFSQFHNVLPEEQEEMVFTELKLFLVGNQTENIRIDEYDKHDLPISILANISFDPFIRSELERFHDILVTVATIKICCYAITHDSVTFSSISSAVASTIEKKVNGFITKICTKLSGSTEANQQMNQLLREMHTIHESLNFYNGIVKSIYLDQLIGGQVLSLLDSKRRHVFSGNVVQNLDDVFQAGWKVFARSIGRLVCKFEADHMDYEFVIWSTKQMTDSQCKTLVPSNPSRQIKSSRYVVIESLCPDFFKKYLDILVRCAEFGDSAKSDSSLRRSTSKKINESESVESVMEDVRNVDWSNLDVATTVRMLVQFSRKESACLLREITSATNVDQAIRDIHDLLIKGSCAHDVMLFGLKADILQKPIDEVGNIRMKKLTNDVLGAAAEKHHPFWKYFSFVIDKQNVFEMLGQRTSLGGNADNLRDNVTPMLFECISVKMDCPIEIEPIISMKAVFILTPVFRIWIQLHVASYTIANYRDSIRGQMPSRSLGDIAMKKHLMHALDAEISSIKQKWVGYVDLLINLYYERIQKAASLDEYTECQDILASDVTNMMGISELSQLENIKDILNIIWNYDNADSNLADLIADFEEVQSRARMDVVVA | not soluble
MDAALRRLQTFLSTIPQCDHTKYEGHYQQVFYIIFSLLGYYVDVEVRTSRGRVDVVLRTEATLYVMELKLDKNATVAMEQINLKNYPERFALCGLPVVKVAVNFDSESGTLGDWMIEK | not soluble
MDAIKKKMQAMKIEKDNALDRADAAEEKVRQITEKLERVEEELRDTQKKMTQTGDDLDKAQEDLSAATSKLEEKEKTVQEAEAEVASLNRRMTLLEEELERAEERLKIATEKLEEATHNVDESERVRKVMENRSLQDEERANTVEAQLKEAQLLAEEADRKYDEVARKLAMVEADLERAEERAEAGENKIVELEEELRVVGNNLKSLEVSEEKALQREDSYEEQIRTVSSRLKEAETRAEFAERSVQKLQKEVDRLEDELVHEKERYKTISEELDSTFQELSGY | not soluble
MDAPRINKWLKPLSALYGVGVRLRNYLFDKNVLISNSFDIPIVCVGNITIGGTGKTPHVEYLIRLLHPRYRVAVVSRGYKRKTKGMIVATEGSTAWDIGDEPRQIKRKYPDLTVIVDADRSRAIGYLCDLAEEQRPQLIVLDDGFQHRKVKADLNIVLTDYNRILTKDYLLPAGRLREPAGSIQRADMVILTKCPDDLAPIDLRAAKRDLALYPHQKLFFSKFLYGQGLKPLFSDQSPSAEVRSALAIAGIASPKLFFREIRTRFPSGTDRIYPDHHEFTDREICLLIQDWHELHRKDANAIVVCTEKDAMRLALRQSSFPQEMQERFYYLPVEVKLMFDQEKVFVDRLLGVIQHKKLEHHHHHH | not soluble
MDAVSPLDAYERAVQRGFQPDQAQLQAVQQLQACYLALTESRGQAQGVYLWGPVGRGKTWLMDRFFESLNVPARRQHFHHFMRWVHKRMFELMGTPQPLTVVAKELARDVRVMCFDELFVTDIGDAVILGGLLQVMFEQGVVLVCTSNQPPDQLYSHGHNRERFLPAVAAIQKYMKVVAVDGGEDHRLHPGQLHQRYWVAQAGQPSALQGIFEALSAGQPVHDSQVMLGYRSINVVEHSDTAVWCRYRDLCEQPLAAMDFIALCDRFSVILLSEVPVLGAVQREAKIARGTEDGVEQVTAGDRELPQLSPNDDGVRRFIALVDECYDRRIPLYVEAPVPMDQLYTQGYLSFAFRRTLSRLQEMQLERFTESLEHHHHHH | not soluble
MDDHNALLAERHTIFQSSLMTALLDGIYDGEISIGELLGHGNFGIGTFDALDGEMVILDGVCYQLRGDGSASEAALTQRSPFAIATNFVPRLKARVPRGMHRSELSDFITSLLPSENYMYAVRISGMFSSVSVRTVTKQERPYRPMTQATGDDAELEFTNVSGVVAGFRTPIYEKGIGVPGCHVHFIDTDRTSGGHVLDFTMSEGTIEVCPGTDLQLRLPLTQDFSKASLAPDDLDAQIHATEVKG | not soluble
MDDPFASLEPLAVAPSGPEGVRAQFDQMEDIPPPRPRQPPPAQEDPVEIEVTEDGVARAFTEKYGGTLRFDHDAGRWYHWQEDHWQADTTSRAFEYCRRLARLASEGAKHSLLSTARKASFAGGVERLARADPAHAVTQEAWDRDPWLVACPGETVDLRTGRSAVPRPEDGITRRVAVAPAAQETCPTWWQFLEDATGADSSVMRFLQQWAGYSLTGITREHTLVFLYGDGGNGKSVFINTLTGLLGDYAATAGMETFTASKSDRHPTDLAMLAGARLVAASETEEGRAWAESRIKQMTGGDRITARFMRRDFFTYTPQFKLTLVGNHRPALANVKPVEPWALVVPAELETVAQQVLAEIAAAAVSDVNPFSGTLELIVEPGLTSATGWYLIGNPALHDGLAHAFLDGQSAPRIETRAGWNTLGMEFRLTWAVDAKFIGTASWFRNPGASGCPRCRPRNAQRQGVALLCLARRSEVLDRLEHHHHHH | not soluble
